test: soluble fraction after stress (log2 fold change); higher = more stays soluble; pooled small domains, quantitative proteomics; conditions: stress: 75 degC
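Note: 20 min heating vs room temperature control held 20 min.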

Row | Sequence | soluble fraction (log2)
1 | HMSGMNSDHRVNGNIHTFLIQHDLGTKWSVFTEQLLKQVFRSFLPDKELNFQTTDSTVILKVSLGSDFNEH | -0.0399
2 | HMSGPAEDLLAIEGMDKELAYELAARGIRTRDELADQSLDELEAVPGLDPVRAGQLIMAARAHLFENAGQ | 0.0744
3 | HMSGRSVSYSEFMSRVEAGQVSSVTLDGERVEVTGSDGSRYVTIAPSDATLTDKLVAKGVEVRADP | 0.462
4 | HMSGSKEQQIVILNNILERQLQAFGLQGNREFPMVTLKNIYNSLSKIIENAGLKNVENYFVNPEQGKQM | -0.0735
5 | HMSGTFIGGELVKPGEPLTPMQRAAITMGLQMGNTYSPEIMEKYNNAGGSPSKEEFENYQKNKS | 0.216
6 | HMSHGFFELKTTQKEALIKLLDSHPNFTHTKTEADLTTAFLKLPMDAEQFNKLLFTNGIVLSHLVKRK | -0.581
7 | HMSHGYVEMQAKDDQVLLAALKNHPWFEKVSIDEETGLTKAILTQPIEAEELNSMLFEKGIVLSHLVKRK | 0.288
8 | HMSHISLGQRYKIEGYLQINLKRTQIAKEIGLPKKTVNQEIKRNSNPQTGIYKAEEAHQLYLDRMQKKRK | -0.335
9 | HMSHKYKLTVPETGEGTRVDKFLSSALTELSRTRLKSLIEEGQVTLGGVKLTNPSHRVKSGDELNIEIPVP | 0.018
10 | HMSHPNAPLTPEGRRRLAVLIVEDGWTIRRAAERFQVSPATASKWARRYRAGESLTDRSSRP | -1.85
11 | HMSHSDMEEWTDAVRSRRKKLGLTQVQIARRLGVTSHHFSQIESGRTIPSASLQIEIDRLLKNWND | -1.73
12 | HMSHSVLIDISQLRIGMYIQLDVGWMHHPFPVSSFRVASLEQIEALRTLNLAQVRYFPAKSDPV | -3.51
13 | HMSIAEMSGARKSAILLLALDEDSAAEIFKYLSAGEVQEISMEMAKLNQVSHDDMKAVLEAFHKETEEFV | -0.821
14 | HMSIAKIIGDRIRAYRNQKGWSQEYLAEKADVHHTYIGQLERGEKNATIESISKIAGALGVSLSRLFEN | -0.659
15 | HMSIEHVPGYTTLSKREQEIVHALLTRKTPEELADDLSISINTLNKHISHIYHKLGIRGRMQLFDYA | -1.1
16 | HMSIEIKTIDVKHADLFQLQDILRNLYPELNIVPDQRNNKLILQGKRELLVEAERLTLQLDTE | 0.248
17 | HMSIESPEEFNAKFPPGSEIYATNIQKNAIVQSPANAKGDVEILANSMRLTINFRFISKRDT | -1.6
18 | HMSIGPQMAGRRVLSGDLIARLEAFEGTVVLGRGVAREDALLIATQAGHVRWEPASRRLWVDSTA | -2.38
19 | HMSIHPRDKADLGTALSKWKKGALDDKQLELEVARVFMRTYGKKLEGQALNKAVAAWVAALTQSKK | -0.171
20 | HMSINIDEEKKILGPNADQIIKGITTWGQGLVSKGIWSDADFEEFKIFAATGNGINALNKVRKYY | -0.338
21 | HMSIQMPDLSITPVTDAKKKIESLQLQYKEVGEYNDSVIAGYVIRTEPASGSYLNEDEEVIIYVSKG | -0.776
22 | HMSISEFNYTEFNGLVEKGQVSEVTISGREIEGRLTSGESFKTYSPETDNSALVGDLLKNNVKINGKP | 0.0159
23 | HMSITKDNLSIGTNIRISGFSDIGRIISIPNKGNQVQVQIGSAKMNIKINSIVEIIKEEKDFNKNISN | -1.48
24 | HMSIYMNIYNEFKKYIIANVYKYDDKLPSVRSIALEYGINPNTVQRAFQLLEDEGYIKTISKKGVYVNYR | -0.745

Row | Sequence | soluble fraction (log2)
25 | HMSKAYLSVESNISGARVFVDGQKEGTTPLSDVLLSAGEHLILVKKQGYETYQKRVRFQKGRSMSLYVDLS | -0.0864
26 | HMSKDQKKFFIEIVSIRGFGSQIGISILNKLSIPQIINAIKTQNKKEISSIPGIGQKMTERLILELNNKFK | -0.183
27 | HMSKININTITESELKELPISTVKQKAIQDYLIDRGFISNIYDLLDIKEITSDDVSLLKKVVNVKLPY | -0.489
28 | HMSKIVPVAYSQFLKDVKNGNVSQVEIRGNNIKGINNNGSSFSTYAPNDLSLIDKLEKSNVEIIVMPLE | -0.368
29 | HMSKKLLVLQTSDDAKAKDVLSQNGYQLDDGDKLSIIETEQTKMADVIKLLSDNAIDIEDVQHVH | 0.14
30 | HMSKLQETEIPVALEVEKIPGLSNELKQKLLKIKPQTIGQASRISGITPAAISILMIYIKKNESISAVK | -1.9
31 | HMSKLQKTKYAGVYFTEDTQTRVKTYVARIVLAGIIDTEVVVGHSNDQHRTNAAIAYQRRLELIQEAKN | -4
32 | HMSKLSLREIVKKFEEQIIQLHKRGLNHSEISREIVTKNSIDLGDSHIDSLRRAISVHLQTP | -0.755
33 | HMSKPIREVAYETLKNAIVTGEIPAGSRIVETEYAERMHISRTPLREALRKLERDGLVEYVVRRGVVVRAF | -1.63
34 | HMSKPTLTLKSNAYPYNLNGERINNYLGFTYIKKGATLNYQGSKRINGQNYYYIGDGAYIKNTTVGSTNN | -1.23
35 | HMSKQDRRIRRTRRLLKESLIQLMQEKEFMNISVREVTERADLNRGTFYLHYQDTRHLLQDIENETL | -3.3
36 | HMSKQEFVDRLRVSLSGKISPASVEDNARYYEDYINTHIRLGEPEEDVLEGLGDPRLIARSIVAAESV | -0.0989
37 | HMSKQLGFKIKTARRKLNISQGDLSKKLEISPSYLNLIESGKRKVSTDLLMKASEILNLDLKKL | -0.966
38 | HMSKQQFLDELAARLREEGAELLVAENLNFYRSYIEEEVAKGRSEEEVLAELGNPALIARSILDAAGF | -0.219
39 | HMSKSIELMNEIKKYIEEYYLQYRQSPSTTKIAEAVGIARGTAYKYLVEMSERNMIEYDGQEISTEVTRKY | -1.43
40 | HMSKSKSEIDKDPHFWSSLFQRIGEGESLRKIAKDSKIPKSTLWAWIRNDPQLALRYSEAQQ | 0.0521
41 | HMSLAATLSPREIDTVRLIAVGSSNKEIARQLGIAETTVKIHVQHILRKLNLTSRVQVAVFANAEGII | -0.931
42 | HMSLAISGRNQLHGIIEEVRSDGLLSQIYLRVGDQVLTAVITRDAVAELKLKRGDTAVAIMKSTEVMIARE | 0.38
43 | HMSLDLERAVALLSLPRPVGNHPEDGELVEAGIGRYGPYVKHGSKYANLPDADEVFTIGMNRAVEVLAAK | -0.109
44 | HMSLDTASDKELLGLIVSEPIATRVLDAFRTLDATLFRTTPAELAAAAGVSSEHAQKIKAVAEIAARMLKP | -0.343
45 | HMSLEDYVIIKNKTVKVYETEFDGAPVVTSSSVGQKLILVEYNDNFAKILYRAKDGLDYVGYIKRKDVYVR | -2.55
46 | HMSLLLTPREASVWASEYLGKKVTSNNIIYLLNYGKIANHSTDLKENLIDKNELKIYYDSTIKSQKH | -0.755
47 | HMSLLQDRQRHEALAALGYYRGSVSAAWGAASVEALKAAQAALGVEVDGKWGPKTEDVIQAALGT | -0.272
48 | HMSLLQTRQRHEALAALGFFKGDVAAEWSAASTEALRAAQASLGIRVDGKWGPQTEDAIGKALAERQG | 0.0108

Row | Sequence | soluble fraction (log2)
49 | HMSLLTIDELSQATGVSVRTLRYYVSSGVLDKPTGETRNARYGTHHLDQVRNIKKLQEEGLTLNRILEIKK | -2.14
50 | HMSLNHDIWVQELKEKRSGYGISQSRLAIAAGMTRQYLSDIETGKVLPSAERKAAITEALERFNPD | -0.348
51 | HMSLNNAHNTIFPRIIELMEMKQLENVLLIGGGIIPRKDIESLESSGVTKLYGPGTPVKETIEFITNWVK | -0.216
52 | HMSLPKVLVPTDITVSQLAKYLEVDAIAIVKKLFGLGVVASLNQRLENEQMQLLGQEFGKDIIFTEN | -1.39
53 | HMSLPTSDWKRALSLFDEALSLPPDARDAWLAHTIAREPAVSPLLQKLLGAHRRVETNDILATLPR | -0.534
54 | HMSLQNTMANFAGGVLVLFLKPFKAGDYIVTKDGEGTVASIGLVYTTLLTIENKRIVIPNSSISNSPITN | 0.159
55 | HMSLRGEKTYDEAHQKLIKSAVELFKNPLVSPEKITVSQIAKHAGVSVATAYNHFPENKLDIYGSIF | -0.203
56 | HMSLRVIEIFGTPQQMSARISLMDGSVTDVKVGQSIPGTSYKVASITGNGVWIQNGTAVSYTHL | -2.41
57 | HMSLSDADVERLLEVAIDIESLEEREGLYYQANESEPYSGWGKLMYDSGQVERLVPYKDGRWEGLWTIW | -1.07
58 | HMSLSISSLVFFRKNAGLTQADIATAMSITQSAVARLEKRLLSDSDVTLKTLERYAEAVGIRMHVDFEP | 0.01
59 | HMSLSKEEFETISKQVLELAGAGPIPVKELLQKMERTSKEKAWKVIEFLQAEDKIVPDATGRIQL | -0.727
60 | HMSLSKQETEFLTTFSASGKRVFTYQQATDYWQSKVAATNVLGRLVRKGWLQRLERGLYMIIPLEAGPERF | -1.71
61 | HMSLSPAATRSRGYPSVLLTMKAPERLVSAAGPDRRAYLVGTDPLVIELPGVKGLYKVDPDQIVFE | -0.0024
62 | HMSLTEEQVDSGLKEIRLALLEADVALPVVKNFITNIKPKAIGQEIIRSTSPGQMIVKIVYDELVSIL | -0.066
63 | HMSLTEESAKSLIGLTENEAVKVAAERGWTVRVAMRDGEAFMLTQDYSENRVNLTVMKTLVTAVTI | -3.32
64 | HMSLTMPKLIGMHLFQAERTLNYYGFQYKVEGPDSASVVIDQYPKEGVTVDPHYPITLKIGPSA | -2.18
65 | HMSLYGGYEIDIIKEEVVDAGIKLLRRRVIVADQRGISVYEGKPTFASDDQVLIKEGQYQIDKLG | -2.46
66 | HMSMHVHTPNPDFKPSNTNALQEGQLVEHPKFGFGKVQKIETEGLNKKASIQFEHFGEKTLLLSFAKLRII | -1.47
67 | HMSMLGTEQRVLVLGPARKGEGFLMARTDNNRIVNFEGPLSLVDTMVRVKVTDVYPHSLGGQLL | -1.51
68 | HMSMPDERMLTSWMMARVKAAGKTMTRDAWNEFFERSNDSMDHMDMEMEKLLSYVYDKDGITLEDVEA | -0.223
69 | HMSMQIILLDKVVNLGGLGDVVKVKDGYARNYLIPQGKAKRANTANLAEFEARRVELERLAAEQLAQAQA | -0.0666
70 | HMSMRIDTNTLNYYVQNAQISLSVLRTKINNLDQFLSGEKQPTFNQLSEIAKKINVPTGLLLLNKS | -2.17

Source: the domain aggregation screens of Martell et al. (2025)
